Data reported in paper PMC3804511.

Key:
[1] = molecular target: T1, GST-Kic1(1-359)-His6 (wild type) (S. cerevisiae) (UniProt P38692)
T1 sequence: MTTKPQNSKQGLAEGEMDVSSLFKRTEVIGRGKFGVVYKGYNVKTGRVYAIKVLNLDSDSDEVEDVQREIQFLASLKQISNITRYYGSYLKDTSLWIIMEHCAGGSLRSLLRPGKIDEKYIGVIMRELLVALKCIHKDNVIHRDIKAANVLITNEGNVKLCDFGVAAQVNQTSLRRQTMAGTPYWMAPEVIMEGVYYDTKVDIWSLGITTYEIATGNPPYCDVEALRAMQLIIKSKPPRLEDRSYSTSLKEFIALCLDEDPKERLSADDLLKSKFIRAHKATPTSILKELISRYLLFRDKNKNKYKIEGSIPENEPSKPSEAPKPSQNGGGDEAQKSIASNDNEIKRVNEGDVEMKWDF

[2] = molecular target: T1, GST-Kic1(1-359)-His6 (wild type) (S. cerevisiae); remark: listed apart in the source

- Kic1 kinase activity (reaction rate over 15 min on GST-Cbk1(673-756)-His6) with Hym1 relative to without Hym1 [1]: > 5 fold
- half maximal activation (Kact) of Kic1 kinase activity (32P transferred to GST-Cbk1(673-756)-His6); Hym1 in 2-fold serial dilutions from 13 µM, Kic1 constant at 0.5 µM [2]: 2 µM
B1: Hym1-His6 (full length, GST cleaved) (natural protein)
chain: MFKKYKNQDLDMAFWWKKNPKTPSDYARLIIEQLNKFSSPSLTQDNKRKVQEECTKYLIGTKHFIVGDTDPHPTPEAIDELYTAMHRADVFYELLLHFVDLEFEARRECMLIFSICLGYSKDNKFVTVDYLVSQPKTISLMLRTAEVALQQKGCQDIFLTVGNMIIECIKYEQLCRIILKDPQLWKFFEFAKLGNFEISTESLQILSAAFTAHPKLVSKEFFSNEINIIRFIKCINKLMAHGSYVTKRQSTKLLASLIVIRSNNALMNIYINSPENLKLIMTLMTDKSKNLQLEAFNVFKVMVANPRKSKPVFDILVKNRDKLLTYFKTFGLDSQDSTFLDEREFIVQEIDSLPRIISSTTEVSNNNASSSNVASITSPSSVMNNQSSILTHSTSPDSR
